Reference: PMC9278102

Tests used:
[1] = target: SARS-CoV-2 S1-S2-His-T4 trimer (SARS-CoV-2 (wt; Wuhan strain)); assay: SEC
hACE2-fc dimer (human) = hACE2-fc dimer (human) (UniProt Q9BYF1); assay: SPR
UniProt Q9BYF1, sequence (Q9BYF1 18-740): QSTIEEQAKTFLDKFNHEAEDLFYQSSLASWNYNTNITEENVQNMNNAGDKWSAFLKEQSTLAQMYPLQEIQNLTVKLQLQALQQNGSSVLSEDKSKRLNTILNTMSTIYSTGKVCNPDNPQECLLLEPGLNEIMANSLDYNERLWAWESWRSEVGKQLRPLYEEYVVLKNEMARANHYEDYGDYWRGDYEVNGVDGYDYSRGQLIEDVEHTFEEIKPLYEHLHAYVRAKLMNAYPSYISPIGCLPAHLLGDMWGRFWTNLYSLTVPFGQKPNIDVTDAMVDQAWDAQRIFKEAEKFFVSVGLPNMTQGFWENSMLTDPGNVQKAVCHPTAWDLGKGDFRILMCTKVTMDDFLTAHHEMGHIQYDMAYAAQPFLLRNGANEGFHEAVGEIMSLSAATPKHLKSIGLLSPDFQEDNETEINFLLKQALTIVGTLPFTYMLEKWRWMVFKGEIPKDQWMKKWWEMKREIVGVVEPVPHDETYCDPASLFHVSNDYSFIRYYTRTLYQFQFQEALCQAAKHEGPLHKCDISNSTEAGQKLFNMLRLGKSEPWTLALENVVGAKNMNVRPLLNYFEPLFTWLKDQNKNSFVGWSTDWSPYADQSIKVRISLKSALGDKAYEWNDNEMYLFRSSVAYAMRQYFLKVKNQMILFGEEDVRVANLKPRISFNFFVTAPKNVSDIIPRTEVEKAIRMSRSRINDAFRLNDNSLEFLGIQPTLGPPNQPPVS

Substance “SARS-CoV-2 S1-S2-His-T4 trimer (domain or fragment)” has a stoichiometry N [1] of 3, a KD1 (two-state fit, primary binding) (hACE2-fc dimer (human)) of 1.8 nM and a Kd (hACE2-fc dimer (human)) of 0.04 nM. The ka1 (two-state fit, primary binding) (hACE2-fc dimer (human)) was 780000 M⁻¹ s⁻¹, the ka2 (two-state fit, secondary transition) (hACE2-fc dimer (human)) was 0.011 M⁻¹ s⁻¹ and the kd1 (two-state fit, primary binding) (hACE2-fc dimer (human)) was 0.0014 s⁻¹. It also gave a kd2 (two-state fit, secondary transition) (hACE2-fc dimer (human)) of 0.00024 s⁻¹.
